As a reminder, the Kd is the equilibrium constant for the complex coming apart. By koff is commonly meant the first-order rate constant of dissociation. Broadly, the kon is a measure of how fast the partners come together.

In test [1] the target is T1, hPSMA antigen (with an added HHHHHH sequence) (human, UniProt Q04609 44-750).
T1 construct: also called human PSMA (hPSMA)
In words: in vitro screening of VHH from immunized llamas.

Test [2] has as its target T2, human PSMA-Fc (human, UniProt Q04609 44-750, limits assumed).
T2 construct: also called Human PSMA-Fc fusions; not shown: Fc part
Nature of the test: Octet.

Test [3] deals with T2, human PSMA-Fc. Nature of the test: Octet, human PSMA-Fc. The method, then: Binding affinity of select PSMA PTE variants was tested by Octet.
Test [4] has as its target T2, human PSMA-Fc. In words: linker length / domain swap comparison.
Test [5] has as its target T3, cynomolgus monkey CD3 epsilon (cynomolgus monkey, UniProt Q95LI5 22-117, limits assumed).
T3 construct: also called cyCD3e
T3 sequence (looked up): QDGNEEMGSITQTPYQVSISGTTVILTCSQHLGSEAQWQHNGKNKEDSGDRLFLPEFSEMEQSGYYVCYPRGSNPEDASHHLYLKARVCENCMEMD
Nature of the test: Octet.

The target in another test is T4, human CD3 epsilon (human, UniProt P07766 23-126, limits assumed).
T4 construct: also called huCD3e
In words: Octet. For orientation: BLI is a label-free optical method that tracks binding on a fibre tip over time.

Test [6] concerns the target T5, human PSMA (human, UniProt Q04609 44-750, limits assumed).
T5 construct: also called huPSMA
Nature of the test: Octet.

In another test the target is T6, cynomolgus monkey PSMA (cynomolgus monkey, UniProt A0A2K5VNZ0 44-750).
T6 construct: also called cyPSMA; Cyno PSMA
Nature of the test: Octet.

Test [7] addresses T5, human PSMA. In words: BLI or SPR. The text has this: The values are reported below in Table 19 for PSMA and Table 20 for CD3.
The target in another test is T7, Human CD3 (human, UniProt P07766 23-126).
T7 construct: not shown: A CD3 delta partner cannot be excluded
In words: BLI or SPR.

The target in another test is T8, Cyno CD3 (cynomolgus monkey, UniProt Q95LI5 22-117).
T8 construct: also called cynomolgus monkey CD3; not shown: A CD3 delta partner cannot be excluded
T8 sequence: T3 sequence (looked up)
In words: BLI or SPR.

T1 sequence (Q04609 other isoform, or with tags, fused parts or gaps limits assumed): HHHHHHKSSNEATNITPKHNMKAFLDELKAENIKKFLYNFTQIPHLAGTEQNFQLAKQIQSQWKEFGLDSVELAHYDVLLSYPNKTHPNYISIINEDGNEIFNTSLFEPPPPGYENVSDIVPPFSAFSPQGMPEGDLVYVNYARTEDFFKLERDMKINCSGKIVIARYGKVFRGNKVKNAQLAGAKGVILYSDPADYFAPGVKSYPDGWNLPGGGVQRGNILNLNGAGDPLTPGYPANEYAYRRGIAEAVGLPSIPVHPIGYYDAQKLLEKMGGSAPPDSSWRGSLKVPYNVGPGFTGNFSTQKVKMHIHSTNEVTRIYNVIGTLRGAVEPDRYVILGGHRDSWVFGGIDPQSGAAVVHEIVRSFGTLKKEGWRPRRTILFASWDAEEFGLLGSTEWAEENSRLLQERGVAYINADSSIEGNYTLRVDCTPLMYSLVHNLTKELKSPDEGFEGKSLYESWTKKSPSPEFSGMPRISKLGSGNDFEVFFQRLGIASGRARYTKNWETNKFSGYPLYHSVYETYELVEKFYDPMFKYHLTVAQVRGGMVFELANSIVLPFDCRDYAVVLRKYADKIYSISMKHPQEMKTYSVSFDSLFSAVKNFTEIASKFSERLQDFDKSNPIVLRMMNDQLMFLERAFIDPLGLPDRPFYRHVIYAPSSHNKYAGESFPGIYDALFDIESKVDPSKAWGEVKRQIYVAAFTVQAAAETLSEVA
T2 sequence (Q04609 44-750 limits assumed): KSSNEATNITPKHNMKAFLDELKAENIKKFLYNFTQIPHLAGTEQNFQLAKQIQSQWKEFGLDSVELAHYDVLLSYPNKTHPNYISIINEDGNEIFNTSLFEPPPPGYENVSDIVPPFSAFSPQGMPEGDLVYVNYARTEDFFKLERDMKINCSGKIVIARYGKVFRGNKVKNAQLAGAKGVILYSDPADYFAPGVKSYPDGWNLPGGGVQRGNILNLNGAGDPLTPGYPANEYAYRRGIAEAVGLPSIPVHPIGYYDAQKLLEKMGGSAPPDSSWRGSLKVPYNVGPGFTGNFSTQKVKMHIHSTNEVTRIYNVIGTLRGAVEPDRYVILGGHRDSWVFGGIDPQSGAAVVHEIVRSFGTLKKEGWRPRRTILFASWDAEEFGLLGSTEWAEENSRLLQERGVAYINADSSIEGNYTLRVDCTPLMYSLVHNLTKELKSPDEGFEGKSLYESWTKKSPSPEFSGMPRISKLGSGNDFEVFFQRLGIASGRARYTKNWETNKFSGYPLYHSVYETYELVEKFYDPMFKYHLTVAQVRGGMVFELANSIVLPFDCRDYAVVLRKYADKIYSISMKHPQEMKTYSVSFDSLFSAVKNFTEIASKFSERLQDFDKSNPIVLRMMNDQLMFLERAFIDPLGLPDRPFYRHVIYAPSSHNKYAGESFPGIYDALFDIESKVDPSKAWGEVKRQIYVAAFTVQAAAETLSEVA
T5 sequence (Q04609 44-750 limits assumed): as above
T4 sequence (P07766 23-126 limits assumed): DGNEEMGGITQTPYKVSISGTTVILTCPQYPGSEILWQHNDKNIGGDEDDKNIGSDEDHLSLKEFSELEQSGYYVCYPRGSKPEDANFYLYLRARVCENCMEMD
T7 sequence (P07766 23-126 limits assumed): as above

B1: P01C01R3 (VHH)
VHH: QVQLVESGGGLVQAGGSLRLSCAASGRTVNSYAMGWFRQAPGKEREFVASQSWMGAITYDADYADSVKGRFTISRDNAKNTLYLQMNSLKPEDTAVYRCAASRQARPGLHVREYDVWGQGTQVTVSS
On to B1, for which the binding result in test [1] was “binds”.

B2: uTCE of AC3342 (bispecific antibody, V domains shown)
VH: QVQLVESGGGVVQPGRSLRLSCAASGRTFGIYVMGWVRQAPGKEREFVAAISWSGSNRLVSDSVKGRFTISRDNSKNTLYLQMNSLRAEDTAVYYCAASNKLYGRTWYDFNESDYWGQGTQVTVSS
notes: VHH in uTCE with CD3.23 scFv (VL-VH), 9-residue linker; also called PSMA.132; R101K
In the test with human PSMA-Fc [2], B2 showed an equilibrium dissociation constant (Kd) of 5.6 nM. Besides, in the test with human PSMA-Fc [3], binding was characterised by a dissociation constant (Kd) of 5.6 nM, the dissociation rate constant (koff) is 0.000479 s⁻¹ and the kon came out at 86600 M⁻¹ s⁻¹.

B3: uTCE of AC3354 (bispecific antibody)
chain: LTGPATSGSETPGTQVQLVESGGGVVQPGRSLRLSCAASGRTFGIYVMGWVRQAPGKEREFVAAISWSGSNRLVSDSVKGRFTISRDNSKNTLYLQMNSLRAEDTAVYYCAASNRLYGRTWYDFNESDYWGQGTQVTVSSGATPPETGAETESPGELVVTQEPSLTVSPGGTVTLTCRSSNGAVTSSNYANWVQQKPGQAPRGLIGGTNKRAPGTPARFSGSLLGGKAALTLSGVQPEDEAVYYCALWYPNLWVFGGGTKLTVLGATPPETGAETESPGETTGGSAESEPPGEGEVQLLESGGGIVQPGGSLKLSCAASGFTFNTYAMNWVRQAPGKGLEWVARIRSKYNNYATYYADSVKDRFTISRDDSKNTVYLQMNNLKTEDTAVYYCVRHENFGNSYVSWFAHWGQGTLVTVSSGTAEAASASGEAGRSANHTPAG
notes: unmasked TCE of this paTCE; 15-residue VHH-scFv linker; also called PSMA.5 (15 mer)
For B3, the Kd in the test with human PSMA-Fc [2] stood at 3.5 nM. In the test with human PSMA-Fc [4], this molecule displayed an equilibrium dissociation constant (Kd) of 3.5 nM, a koff of 0.00027 s⁻¹ and a kon of 77000 M⁻¹ s⁻¹.

B4: CB01A01R3 (VHH)
VHH: EVQLVESGGGLVQAGGSLRISCTASERSVSTYTKGWFRQAPGKERHLVAAISYNGDTTYYSDSVKGRFTISRDNVKNTVNLQMNSLKPEDTAVYFCAARGSSWLYGTWDDYHYWGQGTQVTVSS
For the molecule B4, the binding result in test [1] is “binds”.

B5: uTCE of AC3356 (bispecific antibody)
chain: LTGPATSGSETPGTQVQLVESGGGVVQPGRSLRLSCAASGRTFGIYVMGWVRQAPGKEREFVAAISWSGSNRLVSDSVKGRFTISRDNSKNTLYLQMNSLRAEDTAVYYCAASNRLYGRTWYDFNESDYWGQGTQVTVSSGGGGSGGGSEVQLLESGGGIVQPGGSLKLSCAASGFTFNTYAMNWVRQAPGKGLEWVARIRSKYNNYATYYADSVKDRFTISRDDSKNTVYLQMNNLKTEDTAVYYCVRHENFGNSYVSWFAHWGQGTLVTVSSGATPPETGAETESPGETTGGSAESEPPGEGELVVTQEPSLTVSPGGTVTLTCRSSNGAVTSSNYANWVQQKPGQAPRGLIGGTNKRAPGTPARFSGSLLGGKAALTLSGVQPEDEAVYYCALWYPNLWVFGGGTKLTVLGTAEAASASGEAGRSANHTPAG
notes: unmasked TCE of this paTCE; CD3.23 in VH-VL order; also called PSMA.5 (domain swap)
In the case of B5, in the test with human PSMA-Fc [2], binding was characterised by a dissociation constant (Kd) of 2.4 nM. Moreover, in the test with human PSMA-Fc [4], the Kd stood at 2.4 nM, the koff was found to be 0.00018 s⁻¹ and the kon was determined as 76000 M⁻¹ s⁻¹.

B6: uTCE of AC3353 (bispecific antibody)
chain: LTGPATSGSETPGTQVQLVESGGGVVQPGRSLRLSCAASGRTFGIYVMGWVRQAPGKEREFVAAISWSGSNRLVSDSVKGRFTISRDNSKNTLYLQMNSLRAEDTAVYYCAASNRLYGRTWYDFNESDYWGQGTQVTVSSGGGGSELVVTQEPSLTVSPGGTVTLTCRSSNGAVTSSNYANWVQQKPGQAPRGLIGGTNKRAPGTPARFSGSLLGGKAALTLSGVQPEDEAVYYCALWYPNLWVFGGGTKLTVLGATPPETGAETESPGETTGGSAESEPPGEGEVQLLESGGGIVQPGGSLKLSCAASGFTFNTYAMNWVRQAPGKGLEWVARIRSKYNNYATYYADSVKDRFTISRDDSKNTVYLQMNNLKTEDTAVYYCVRHENFGNSYVSWFAHWGQGTLVTVSSGTAEAASASGEAGRSANHTPAG
notes: unmasked TCE of this paTCE; 5-residue VHH-scFv linker; also called PSMA.5 (5 mer)
B6 returned a dissociation constant Kd with human PSMA-Fc [2] of 2.1 nM. In the test with human PSMA-Fc [4], this molecule returned a Kd of 2.1 nM, a koff of 0.00022 s⁻¹ and an on-rate (kon) of 110000 M⁻¹ s⁻¹.

B7: uTCE from AC3445 (bispecific antibody)
chain: LTGPGTSESATPESQVQLVESGGGVVQPGRSLRLSCAASGRTFGIYVMGWVRQAPGKEREFVAAISWSGSNRKVSDSVKGRFTISRDNSKNTLYLQMNSLRAEDTAVYYCAASNRLYGRTWYDFNESDYWGQGTQVTVSSGGGGSGGGSELVVTQEPSLTVSPGGTVTLTCRSSNGAVTSSNYANWVQQKPGQAPRGLIGGTNKRAPGTPARFSGSLLGGKAALTLSGVQPEDEAVYYCALWYPNLWVFGGGTKLTVLSESATPESGPGTSPGATPESGPGTSESATPEVQLLESGGGIVQPGGSLKLSCAASGFTFNTYAMNWVRQAPGKGLEWVARIRSKYNNYATYYADSVKDRFTISRDDSKNTVYLQMNNLKTEDTAVYYCVRHENFGNSYVSWFAHWGQGTLVTVSSGTATPESGPGEAGRSANHTPAG
notes: unmasked TCE released from this paTCE; also called PSMA.119-CD3.23 uTCE
Turning to B7, the Kd was 40 nM in test [5], 34.8 nM with human CD3 epsilon, 6.2 nM in the test with human PSMA [6] and 47.5 nM in the test with cynomolgus monkey PSMA.

B8: P01E02R3 (VHH)
VHH: EVQLVESGGGLVQAGGSLKLSCVANGPTFSTYAMAWFRQAPGKEHEFVAAITGDGDTTNNADSVKGRFTISRDNAKNRVYLQLNSLKPEDTAAYYCAAGVHHTYTIPRLWLYWGQGTQVTVSS
For the molecule B8, the binding result in [1] is given as “binds”.

B9: CB01B02R3 (VHH)
VHH: QVQLVESGGGLVQAGDSLRLSCVTSGRTFDVYAMGWFRQAPGKERELVAAINWSGSNKFHADSVKGRFTISRDNAWKTLSLQMNSLKPEDTAVYFCAASTRLYGTTWYEFNDSDYWGQGTQVTVSS
notes: also called PSMA.3
For B9, the binding result in test [1] was “binds”.

B10: AMX-500(1x-C) (bispecific antibody)
chain: ASSATPESGPGTSTEPSEGSAPGTSESATPESGPGSGPGTSESATPGTSESATPESGPGSEPATSGSETPGTSESATPESGPGTSTEPSEGSAPGSPAGSPTSTEEGTSESATPESGPGSEPATSGSETPGTSESATPESGPGSPAGSPTSTEEGSPAGSPTSTEEGTSTEPSEGSAPGTSESATPESGPGTSESATPESGPGTSESATPESGPGSEPATSGSETPGSEPATSGSETPGSPAGSPTSTEEGTSTEPSEGSAPGTSTEPSEGSAPGSEPATSGSETPGTSESATPEAGRSASHTPAGLTGPGTSESATPESQVQLVESGGGVVQPGRSLRLSCAASGRTFGIYVWGWFRQAPGKEREFVGAMSWSGSNRKVSDSVKGRFTISRDNSKNTLYLQMNSLRAEDTAVYYCAASNKEYGRTWYDFNESDYWGQGTQVTVSSGGGGSGGGSELVVTQEPSLTVSPGGTVTLTCRSSNGAVTSSNYANWVQQKPGQAPRGLIGGTNKRAPGTPARFSGSLLGGKAALTLSGVQPEDEAVYYCALWYPNLWVFGGGTKLTVLSESATPESGPGTSPGATPESGPGTSESATPEVQLVESGGGIVQPGGSLRLSCAASGFTFSTYAMNWVRQAPGKGLEWVGRIRTKRNNYATYYADSVKGRFTISRDDSKNTVYLQMNSLKTEDTAVYYCVRHENFGNSYVSWFAHWGQGTLVTVSSGTATPESGPGEAGRSASHTPAGLTGPATPESGPGTSESATPESGPGSPAGSPTSTEEGTSESATPESGPGSEPATSGSETPGTSESATPESGPGTSTEPSEGSAPGTSTEPSEGSAPGTSTEPSEGSAPGTSTEPSEGSAPGTSTEPSEGSAPGTSTEPSEGSAPGSPAGSPTSTEEGTSTEPSEGSAPGTSESATPESGPGSEPATSGSETPGTSESATPESGPGSEPATSGSETPGTSESATPESGPGTSTEPSEGSAPGTSESATPESGPGSPAGSPTSTEEGSPAGSPTSTEEGSPAGSPTSTEEGTSESATPESGPGTSTEPSEGSAPGTSESATPESGPGSEPATSGSETPGTSESATPESGPGSEPATSGSETPGTSESATPESGPGTSTEPSEGSAPGSPAGSPTSTEEGTSESATPESGPGSEPATSGSETPGTSESATPESGPGSPAGSPTSTEEGSPAGSPTSTEEGTSTEPSEGSAPGTSESATPESGPGTSESATPESGPGTSPSATPESGPGSEPATSGSETPGSEPATSGSETPGSPAGSPTSTEEGTSTEPSEGSAPGTSTEPSEGSAPGSEPATSGSETPGTSESAGEPEA
Turning to B10, the Kd with human PSMA [7] is 353 nM; with Human CD3 it was 34.4 nM; in the test with Cyno CD3, 26.7 nM.

B11: CB01H01R3 (VHH)
VHH: EVQLVESGGGSVQAGGSLSLSCVASGRTFGIYVMGWFRQAPGKEREFVAAISWSGSNRLVSDSVKGRFTISRENAKNTIYLQMNGLKPEDTANYFCAASNRLYGRTWYDFNESDYWGQGTQVTVSS
notes: also called PSMA.2
On to B11, for which, in test [1], the binding result is on record as “binds”.

B12: P01G03R3 (VHH)
VHH: EVQLVESGGGLVQAGGSLRLSCVVSGIAFSPYHMAWYRQAPGKQHEWVAVITTGGTTAYNETVEGRFSISRDNARSTVYLQMNSLKPEDTAVYYCNIYGLSLKWGQGTQVTVSS
Turning to B12, in test [1], the binding result is reported as “binds”.

Values taken from patent US20240327538A1 (AMUNIX PHARMACEUTICALS, published 2024).
